These are literature values, as cited in publication PMC4319847.

By Kd is commonly meant the equilibrium constant for the complex coming apart.

Data set [1] addresses Myc NLS NLS (Homo sapiens) (UniProt P01106).
The target of data set [2] is SV40 NLS NLS (Simian virus 40) (UniProt P03070).
Sequence of SV40 NLS NLS (Simian virus 40) (P03070 whole entry, looked up): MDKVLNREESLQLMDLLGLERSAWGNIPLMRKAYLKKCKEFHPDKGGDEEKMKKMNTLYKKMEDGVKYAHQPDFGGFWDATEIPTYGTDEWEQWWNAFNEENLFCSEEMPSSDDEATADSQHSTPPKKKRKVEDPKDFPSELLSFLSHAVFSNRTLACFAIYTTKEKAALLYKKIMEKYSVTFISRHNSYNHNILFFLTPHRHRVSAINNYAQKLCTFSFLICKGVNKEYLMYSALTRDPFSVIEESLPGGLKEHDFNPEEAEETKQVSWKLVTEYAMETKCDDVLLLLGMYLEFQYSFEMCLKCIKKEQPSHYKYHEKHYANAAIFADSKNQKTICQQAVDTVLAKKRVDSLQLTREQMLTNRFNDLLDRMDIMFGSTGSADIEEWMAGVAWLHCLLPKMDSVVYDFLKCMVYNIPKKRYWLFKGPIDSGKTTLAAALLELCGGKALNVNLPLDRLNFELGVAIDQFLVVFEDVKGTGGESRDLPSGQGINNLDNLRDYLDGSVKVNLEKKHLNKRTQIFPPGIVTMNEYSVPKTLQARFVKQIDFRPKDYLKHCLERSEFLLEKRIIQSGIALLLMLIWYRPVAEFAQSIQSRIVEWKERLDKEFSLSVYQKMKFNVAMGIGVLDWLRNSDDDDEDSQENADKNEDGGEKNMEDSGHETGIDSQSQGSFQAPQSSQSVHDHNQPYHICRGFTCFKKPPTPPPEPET

Sequence of yeast importin-α 89-530 (Q02821 89-530): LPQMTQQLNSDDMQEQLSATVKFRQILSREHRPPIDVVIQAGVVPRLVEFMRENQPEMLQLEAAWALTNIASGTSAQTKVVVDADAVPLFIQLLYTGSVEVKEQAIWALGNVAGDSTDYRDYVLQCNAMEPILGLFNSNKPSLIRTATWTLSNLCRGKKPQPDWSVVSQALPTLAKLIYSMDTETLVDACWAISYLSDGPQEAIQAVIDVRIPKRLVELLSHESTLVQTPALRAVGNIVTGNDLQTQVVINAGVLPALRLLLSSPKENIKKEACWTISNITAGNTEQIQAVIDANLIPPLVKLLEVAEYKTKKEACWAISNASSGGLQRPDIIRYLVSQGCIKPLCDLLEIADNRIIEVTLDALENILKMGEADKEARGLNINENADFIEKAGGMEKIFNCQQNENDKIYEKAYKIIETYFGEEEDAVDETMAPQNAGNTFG
Sequence of Myc NLS NLS (Homo sapiens) (P01106 whole entry, looked up): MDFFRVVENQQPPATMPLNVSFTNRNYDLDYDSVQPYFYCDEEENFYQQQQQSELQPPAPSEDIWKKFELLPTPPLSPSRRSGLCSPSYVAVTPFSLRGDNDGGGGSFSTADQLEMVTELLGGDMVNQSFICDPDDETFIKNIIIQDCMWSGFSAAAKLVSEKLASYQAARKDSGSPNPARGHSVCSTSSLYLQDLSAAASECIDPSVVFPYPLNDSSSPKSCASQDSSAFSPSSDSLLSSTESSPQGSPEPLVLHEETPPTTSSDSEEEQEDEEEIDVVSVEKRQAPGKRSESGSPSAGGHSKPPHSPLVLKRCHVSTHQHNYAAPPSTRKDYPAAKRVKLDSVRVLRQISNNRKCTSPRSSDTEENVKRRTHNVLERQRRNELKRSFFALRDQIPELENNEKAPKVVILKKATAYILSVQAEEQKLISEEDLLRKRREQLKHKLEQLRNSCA

As for “yeast importin-α 89-530 (from UniProt Q02821)”, the Kd in data set [1] was 6 nM; in data set [2] it was 9 nM.
